Reference: the nanobody polyreactivity screen of Harvey et al. (2022)

Assay: yeast display, Sf9 membrane polyspecificity reagent, FACS + sequencing; frameworks hold sequencing errors
Summary of the method: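 A nanobody's polyreactivity label depends on the gate it was sorted from. Yeast display cells were stained with 10% biotinylated, detergent-solubilized Sf9 membrane reagent for 1 hour at 4 °C, enriched on streptavidin microbeads and sorted by FACS. The low and high (top ~1%) gates were set on anti-HA fluorescence for expression and streptavidin fluorescence for reagent binding.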

| Sequence | polyreactivity (PSR sort gate) |
| --- | --- |
| QVQLVESGGGLVQAGGSLRLSCAASGSILGTYAMGWYRQAPGKERELVARISRGGSTNYADSVKGRFTISRDNAKNTVYLQMNILKPEDTAVYYCAKRLYLPESWRYYYWGQGTQVTVSS | high polyreactivity |
| QVQLVESGGGLVQAGGSLRLSCAASGSILGYYAMGWYRQAPGKERELVAAITASGGSTYYADSVKGRFTISRDNAKNTVYLQMNSLKPEDTAVYYCAARRIAPYGRYDYWGQGTQVTVSS | low polyreactivity |
| QVQLVESGGGLVQAGGSLRLSCAASGSILGYYAMGWYRQAPGKERELVAITSGDSTYYADSVKGRFTISRDNAKNTVYLQMNSLKPEDTAVYYCNARYSWKYDYWGQGTQVTVSS | high polyreactivity |
| QVQLVESGGGLVQAGGSLRLSCAASGSILGYYVMGWYRQAPGKERELVAAISWSSGSTYYADSVKGRFTISRDNAKNTVYLQMNSLKPEDTAVYYCNAGGVYDEFNYWGQGTQVTVSS | low polyreactivity |
| QVQLVESGGGLVQAGGSLRLSCAASGSILHAYAMGWYRQAPGKEREFVAAIRRRGGSTYYADSVKGRFTISRDNAKNTVYLQMNSLKPEDTAVYYCAARFPLIGDSGGKSDYWGQGTQVTVSS | high polyreactivity |
| QVQLVESGGGLVQAGGSLRLSCAASGSILIWNTMGWYRQAPGKERELVAAISSGASTYYADSVKGRFTISRDNAKNTVYLQMNSLKPEDTAVYYFYVDLPRVLTDDSWGQGTQVTVSS | low polyreactivity |
| QVQLVESGGGLVQAGGSLRLSCAASGSILKNNAMGWYRLAPGKERELVAAITYSSGSTYYADSVKGRFTISRDNAKNTVYLQMNSLKPEDTAVYYCAAVYRYRYSFSGGYYWGQGTQVTVSS | low polyreactivity |
| QVQLVESGGGLVQAGGSLRLSCAASGSILNGYAMGLYRQAPGKERELVAAISGSGGSTHYADSVKWRFTISRDNAKNTVYLQMNSLKPEDTAVYYCAAAYKWTYYWGQGTQVTVSS | high polyreactivity |
| QVQLVESGGGLVQAGGSLRLSCAASGSILNNYAMGWYRQAPGKERELVAAISSSGGTNYADSVKGRFTISRDNAKNTVYLQMYSLKPEDTAVYYCNADVLDGGYDYWGQGTQVTVSS | low polyreactivity |
| QVQLVESGGGLVQAGGSLRLSCAASGSILQDYAMGWYRQAPGKERELVAAISNSGDSTYYADSVKGRFTISRDNAKNTVYLQMNSLKPEDTAVYYCNAAVYPYALYSGGLDYDYWGQGTQVTVSS | low polyreactivity |
| QVQLVESGGGLVQAGGSLRLSCAASGSILQRNAMGWYRQAPGKERELVAAISSSGDNTYYADSVKGRITISRDNAKNTVYLQMNSLKPEDTAVYYCATDADIYFQEYDYWGQGTQVTVSS | low polyreactivity |
| QVQLVESGGGLVQAGGSLRLSCAASGSILQTYAMGWYRQAPGKERELVAAITWSVVSTYYADSVKGRFTISRDNAKNTVYLQMNSLKPEDTAVYYCNARSFGDPGNAYDYWGQGTQVTVSS | high polyreactivity |
| QVQLVESGGGLVQAGGSLRLSCAASGSILRGYAMGWYRQAPGKERELVAAITWNGGSTYYADSVKGRFTISRDNAKNTVYLQMNSLKPEDTAVYYCNRAIGPYSYPDNYWGQGTQVTVSS | high polyreactivity |
| QVQLVESGGGLVQAGGSLRLSCAASGSILRLYVMGWYRQAPGKERELVADISDRGGSTYYADSVKGRFTISRDNAKNTVYLQMNSLKPEDTAVYYCAAEWGQSGGGGYYYWGQGTQVTVSS | low polyreactivity |
| QVQLVESGGGLVQAGGSLRLSCAASGSILRSNAMGWYRQAPGKERELVAVISNDDSTYYADSVKGRFTISRDNATNTVYLQMNSLKPEDTAVYYCNAVYYYFFRWHPIYDSWGQGTQVTVSS | low polyreactivity |
| QVQLVESGGGLVQAGGSLRLSCAASGSILRTYTMGWYRQAPGKERELVAAISSSGGRTYYADSVKGRFTISRDNAKNTVYLQMNSLKPEDTAVYYCNAGGYRYRSYDYWGQGTQVTVSS | high polyreactivity |

| Sequence | polyreactivity (PSR sort gate) |
| --- | --- |
| QVQLVESGGGLVQAGGSLRLSCAASGSILSAYAMGWYRQAPGKERELVAAISWSGGSTYYADSVKGRFTISRDNAKNTVYLQMNSLKPEDTAVYYCATVNKKWRRYDYWGQGTQVTVSS | high polyreactivity |
| QVQLVESGGGLVQAGGSLRLSCAASGSILSGYAMVWYRQAPGTERELVAAITSGGDTNYADSVKGRFTISRDNAKNTVYLQMNSLKPEETAVYYCAADPSYLGLFGYDYWGQGTQVTVSS | low polyreactivity |
| QVQLVESGGGLVQAGGSLRLSCAASGSILSINGMGWYRQAPGKERELVATIDGSDGTTFYADSVKGRFTISRDNAKNTVYLQMNSLKPEDTAVYYCAAENFWQTKEYDYWGQGTQVTVSS | low polyreactivity |
| QVQLVESGGGLVQAGGSLRLSCAASGSILSQYAMGWYRQAPGKERELVAAITYSGGSTHYADSVKGRFTISRDNAKNTVYLEMNSLKPEDTAVYYCAAKGPRRWGSGLDYWGQGTHVTVSS | low polyreactivity |
| QVQLVESGGGLVQAGGSLRLSCAASGSILSWYAMGWYRQAPGKERELVAAITSGASTYYADSVKGRFTISRDNAKNTVYLQMNSLKPEDTAVYYCAAYPPSQRAEYDYWGQGTQVTVSS | low polyreactivity |
| QVQLVESGGGLVQAGGSLRLSCAASGSILSYNTMGWYRHAPGKEREFVACITYSGSRTYYADSVKGRFTISRDKAKNTDYLQMNSLKPEDTAVYYCAKRNYYLLYWGQGTQVTVSS | high polyreactivity |
| QVQLVESGGGLVQAGGSLRLSCAASGSILSYYVMGWYRQAPGKERELVAAITSDGSTNYADSVKGRFTISRDNAKNTVYLQMNSQKPEDTAVYYCAAVIAWYYGVQDVYYLGLYDYWGQGTQVTVSS | low polyreactivity |
| QVQLVESGGGLVQAGGSLRLSCAASGSILTDNAMGWYRQAPGKERELVAAITSSGNTNYADSVKGRFTISRDNAKNTVYLQMKSLKPEDTAVYYCAAVSYYKHWTDWLPVGEDYWGQGTQVTVSS | low polyreactivity |
| QVQLVESGGGLVQAGGSLRLSCAASGSILTDYAMGWYRQAPGKERELVATISNGGSTNYADSVKGRFTISRDNAKNTVYLQMNSLKPEDTAVYYCNAEPGVPSWELDYWGQGTQVTVSS | low polyreactivity |
| QVQLVESGGGLVQAGGSLRLSCAASGSILTHYAMGRYRPAPGKERELVAAITWRGGSTYYADSVKGRFTISRDNAKNTVYLQMNSLKTEDTAVYYCAADLSYPDWSRYQWDMDYWGQGTQLTVSS | low polyreactivity |
| QVQLVESGGGLVQAGGSLRLSCAASGSILTYNFMGWYRQAPGKERELVASISWSGGRTYYADSVKGRFTISRDNAKNTVYLQMNSLKPEDTAAAYCAVSQSWYWYYASDYWGQGTQVTVSS | low polyreactivity |
| QVQLVESGGGLVQAGGSLRLSCAASGSILVDYAMGWYRQAPGKERELVASITRDGSTNYADSVKGRFTISRDNAKNTVYLQMNSLKPEDTAVYYCAAKYAWRLLEMYYWGQGTQVTVSS | low polyreactivity |
| QVQLVESGGGLVQAGGSLRLSCAASGSILVHYAMGWYRPAPGKEWELVAAISSVGSTNYADSVKGRFTMTRDNAKNTVYLQMNSLKPEDTAVYYCAARASRWYIAVDYWRQGTQVTVSS | low polyreactivity |
| QVQLVESGGGLVQAGGSLRLSCAASGSILVNMGWYRQPPGKERELVAAIRYGGGRTYYADSVKGRFTISRDNAKNTVYLQMNSLKPEDTAVYYCAASQGRSYYYWGQGTQVTVSS | low polyreactivity |
| QVQLVESGGGLVQAGGSLRLSCAASGSILVRYAMGWYRQAPGKERELVAAITYSGGSTYYADSVKGRFTISRDNAKNTVYLQMNSLKPEDTAVYYCAADVWWSYYRYDYWGQGTQVTVSS | low polyreactivity |
| QVQLVESGGGLVQAGGSLRLSCAASGSILVYNAMGWYRQAPGKERELVAAISNTGRTYYAVSVKGRFTISRDIAKNTVYVQMNSLKPEDTAVYYCAAARTSTGSYRYEYWGQGTQGTVSS | high polyreactivity |
